Tests used:
Test in all cases: cell-based or functional assay
[1] = target: gp120 of HIV-1 primary isolate strain 23135 (clade B) (HIV-1 strain 23135)
[2] = target: gp120 of HIV-1 primary isolate Ug046 (clade D) (HIV-1 strain Ug046)
[3] = target: T1, gp120 of HIV-1 primary isolate ZA009 (clade C) (HIV-1 strain ZA009)
[4] = target: T1, gp120 of HIV-1 primary isolate ZA009 …; remark: listed apart in the source

B1: Fv JL427 (scFv)
scFv: QSVLTQPPSVSGAPGQRVTISCSGSSSNFGLNYVTWQGHFPGTAPKLLIYRNDQRPLGVPARFSGSKSGTSASLAISGLRSEDEADYYCQSYDNSLSGWVFGGGYQLYVLGSSGGGGSGGGGSGGSAQVQLQQSGGGLVQPGRSLRLSCAASGFTFSSYGMHWVRQAPGKGLEWVSYIGRSGSHTNYADSVKGRFTISRDNSKNTLYLQINSLRAEDTAVYYCARGLPNYGMDIWGQGTTVTVSS
IC50, HIV-1 neutralization (p24, PBMC hosts) [1]: 22.4 µg Ab fragment/ml | IC90, HIV-1 neutralization (p24, PBMC hosts) [1]: 36.7 µg Ab fragment/ml | IC50, HIV-1 neutralization (p24, PBMC hosts) [2]: 5.5 µg Ab fragment/ml | IC90, HIV-1 neutralization (p24, PBMC hosts) [2]: 12.7 µg Ab fragment/ml | IC50, HIV-1 neutralization (p24, PBMC hosts) [3]: 0.3 µg Ab fragment/ml | IC90, HIV-1 neutralization (p24, PBMC hosts) [3]: 5.7 µg Ab fragment/ml | IC50, HIV-1 neutralization, independent preparations (N=3, mean and s.d.) [4]: 0.3 µg/mL
